Reference: patent US20090263792A1, “ATOPIC DERMATITIS MARKER AND TECHNIQUE OF USING THE SAME” (FANCL CORPORATION, priority 2005, published 2009)

Assays:
[1] = tested on: NC/Nga mice modeling atopic dermatitis; test: Haptene (DNFB) treatment of mice modeling atopic dermatitis, observation of skin inflammation; assay type: in vivo, mouse; conditions: haptene (0.1% DNFB, once a week, 4 weeks) applied; lactoferrin 1 μg/ml in drinking water; compared to haptene-treated mice not given lactoferrin
Experimental: (§1) Six-week-old male mice (NC/Nga mice) modeling atopic dermatitis were obtained (NC/Nga slc, Sankyo Labo Service Corporation) and raised under conventional conditions. […] In view of the above, a 0.1% DNFB solution (haptene) was applied to the skin of the mice on both ears as well as the right and left sides of the back once a week for a total of 4 weeks.
(§2) To relieve inflammation caused by atopic dermatitis, lactoferrin was dissolved in drinking water at 1 μg/ml and administered.
(§3) Three mice were tested under each of the following experimental conditions: (1) haptene (−)/lactoferrin (−), (2) haptene (−)/lactoferrin (+), (3) haptene (+)/lactoferrin (−), and (4) haptene (+)/lactoferrin (+).
When raised with haptene treatment in a conventional environment, the mice (NC/Nga mice) modeling atopic dermatitis used in this study developed a macroscopically noticeable dermatitis very similar to atopic dermatitis after 4 weeks of haptene treatment. In this study, the mice were fed with drinking water mixed with lactoferrin, a substance shown to be effective on atopic dermatitis (a protein with a molecular weight of 80,000 found in saliva and blood and bonding with Fe ions).

[2] = tested on: skin tissues of NC/Nga mice modeling atopic dermatitis; test: Western blotting of protein expression in skin tissues of mice modeling atopic dermatitis; assay type: in vivo, mouse
Experimental: as §1, §2, §3
Skin tissues were cut out from mice treated with haptene/lactoferrin for 4 weeks and the tissue strips were cut into small pieces with a knife, after which the tissue pieces were transferred into a centrifugal tube whose tare weight had been measured beforehand, to measure the tissue weight. Different buffers were added by different amounts, such as tissue weight×0.85 mg Urea, tissue weight×0.1 μl 1.5% SDS, tissue weight×0.1 μl 8.5% Triton X-100, and tissue weight×0.05 μl 2-ME, and homogenized using a HG30 homogenizer (Hitachi, Ltd.). […] Protein content was quantified using the dot blotting method.
SDS-PAGE was performed with a Laemmli Tris-Glycin system using a Western blotting sample. […] If HRP labeled anti-mouse IgG (Amersham Bioscience, Inc.) (1:1000 dilution), HRP labeled anti-rabbit IgG (Amersham Bioscience, Inc.) (1:1000 dilution), HRP labeled anti-rat IgG (Amersham Bioscience, Inc.) (1:1000 dilution) or HRP labeled anti-goat IgG (Santa Cruz Biotechnology, Inc.) (1:1000 dilution) was used as the secondary antibody, an enhanced chemiluminescence (ECL) kit (Amersham Bioscience, Inc.) was used to implement detection by means of fluorescence color development. […]

B1: lactoferrin (protein, UniProt P02788 20-710, looked up)
Lactotransferrin: GRRRSVQWCAVSQPEATKCFQWQRNMRKVRGPPVSCIKRDSPIQCIQAIAENRADAVTLDGGFIYEAGLAPYKLRPVAAEVYGTERQPRTHYYAVAVVKKGGSFQLNELQGLKSCHTGLRRTAGWNVPIGTLRPFLNWTGPPEPIEAAVARFFSASCVPGADKGQFPNLCRLCAGTGENKCAFSSQEPYFSYSGAFKCLRDGAGDVAFIRESTVFEDLSDEAERDEYELLCPDNTRKPVDKFKDCHLARVPSHAVVARSVNGKEDAIWNLLRQAQEKFGKDKSPKFQLFGSPSGQKDLLFKDSAIGFSRVPPRIDSGLYLGSGYFTAIQNLRKSEEEVAARRARVVWCAVGEQELRKCNQWSGLSEGSVTCSSASTTEDCIALVLKGEADAMSLDGGYVYTAGKCGLVPVLAENYKSQQSSDPDPNCVDRPVEGYLAVAVVRRSDTSLTWNSVKGKKSCHTAVDRTAGWNIPMGLLFNQTGSCKFDEYFSQSCAPGSDPRSNLCALCIGDEQGENKCVPNSNERYYGYTGAFRCLAENAGDVAFVKDVTVLQNTDGNNNEAWAKDLKLADFALLCLDGKRKPVTEARSCHLAMAPNHAVVSRMDKVERLKQVLLHQQAKFGRNGSDCPDKFCLFQSETKNLLFNDNTECLARLHGKTTYEKYLGPQYVAGITNLKKCSTSPLLEACEFLRK
notes: a protein with a molecular weight of 80,000 found in saliva and blood and bonding with Fe ions
With B1 the “inflammation on the back (skin condition, FIG. 1)” value [1] was “less inflammation”, the “amount of expression of Annexin II, Enolase 1 and PARK7 (all other than FABP-4) (FIG. 5)” value ([2]; haptene-treated mice also given lactoferrin, to a level close to non-haptene-treated control mice) was “recovered” and the “amounts of expression of Galectin-1, -4, -7 and -8 (FIG. 3)” value ([2]; haptene-treated mice also given lactoferrin, to levels close to non-haptene-treated control mice) was “recovered”. For the same molecule, the “Moesin, Ezrin and Radixin severed types of low molecular weight (50-kDa), increased by haptene treatment (FIG. 4)” value ([2]; haptene-treated mice, lactoferrin administration) was “did not decrease”.
